Results as given in US12662540B2, “Compositions and methods for inhibition of MICA/B shedding” (DANA-FARBER CANCER INSTITUTE, INC., priority 2017, dated 2026).

Assays:
[1] = system: CT26-MICA; assay: CT26 metastasis model; assay type: in vivo, Balb/c mice; details: antibody days 1, 2, 7, 14; count day 21
Protocol: (§1) Balb/c wild type mice were injected intravenously with 1×10^6 CT26-MICA, and treated with 7C6-mIgG2b or MPC-11 (isotype) administered intraperitoneally on days 1, 2, 7, and 14. Euthanasia was performed on day 21, followed by lung perfusion with 30% Indian ink through the trachea and fixation in Fekete's fixative. That procedure stains the lungs in black, while the metastases remain white, enabling counting of metastases under a stereomicroscope (24).
as §1, with “stereomicroscope.” for “stereomicroscope (24).”

[2] = system: B16F10-MICA cells; assay: B16F10 metastasis model in immunocompetent mice; assay type: in vivo, C57BL/6 mice; details: anti-asGM1, anti-NK1.1 or anti-CD8β
Protocol: The B16F10 cells were transduced with the luciferase-based lentiviral vector to express MICA. B16F10-MICA cells (5×10^5) were injected intravenously into C57BL/6 mice through the tail vein. Fewer tumor cells (4×10^5) were injected into NK cell-deficient mice given that the absence of NK cells results in a very large number of metastases. 7C6 or isotype control antibodies (MPC-11 or C1184, BioXcell, which have mIgG2b and mIgG2a isotypes, respectively) were administered intraperitoneally on days 1, 2, 7 and 10 at a dose of 200 μg per mouse. Antibody blockade and depletion were performed as described previously (24). For antibody-based depletion of CD8 T cells or NK cells, 100 μg per mouse of anti-CD8 (5358, BioXcell), anti-NK1.1 (PK136, BioXcell), and anti-asialo(as)GM1 (Wako Chemicals) were given on days −1, 0, and 7. For antibody blockade, anti-NKG2D (HMG2D, BioXcell) or control IgG (MOPC-21) were given at 200 μg per mouse on days −1, 0, 5, 7 and 10. Blood samples were collected at multiple time points by retro-orbital bleeding under isoflurane anesthesia. Mice were euthanized by CO2 inhalation, lungs were perfused with PBS and fixed in formalin solution, and the number of superficial metastases was counted under a stereomicroscope. Histology was performed by the Rodent Histopathology Core of the Dana-Farber/Harvard Cancer Center using lungs that had not been perfused with PBS.
Macrophages were depleted by intravenous injection of 0.2 ml clodronate liposomes (Encapsula NanoSciences LLC). In the humanized and B16F10-MICA metastasis models, 0.2 ml of clodronate liposomes or control liposomes were injected i.v. (on the same day of tumor cell inoculation and then once weekly).

[3] = system: murine tumor cell lines (B16F10, CT26, Neuro-2a) expressing full-length MICA or MICB; assay: Shed and surface MICA/MICB in murine tumor cell lines transduced with full-length MICA or MICB; assay type: cell-based, mouse; details: B16F10-MICA cells, 24 hours
Source text: B16F10, CT26, Neuro-2a, EL4 and RMA-S cell lines were transduced with lentiviral vector pHAGE-CMV-fullEF1a. MICA (allele 009) cDNA or other inserts were placed between NotI and BamHI cloning sites, 3′ to the EF1α promoter and 5′ to the IRES. ZsGreen or luciferase cDNAs were cloned 3′ to the IRES as fluorescence or bioluminescence reporters, respectively. The vector with the ZsGreen reporter was used to compare expression of cDNAs encoding full length MICA, full-length MICB and secreted MICA (Neuro-2a, RMA-S and/or B16F10 cell lines). CT26, EL4 and B16F10 cell lines were transduced with the vector that supported expression of the luciferase reporter. […]
Tumor cells (5×10^4 or 1×10^5 per well, depending on the cell line) were cultured for 24 to 72 hours in 96-well plates (flat-bottom plates for adherent cell lines, U-bottom plates for suspension cell lines). […] MICA or control antibodies were added at different concentrations, and shed MICA/B was then detected in supernatants by ELISA using the Human MICA ELISA kit (Ab59569, Abcam) or Human MICB DuoSet ELISA kit (DY1599, R&D Systems), using the procedures recommended by the manufacturers. […]
MICA and MICB were detected on the cell surface by the PE-conjugated anti-MICA/B antibody (clone 6D4, 320906, Biolegend). […] All samples were acquired in a BD LSR Fortessa flow cytometer, and analyzed by FlowJo V10 software.

[4] = system: RMA-S cell lines; assay: 51Cr release assay with murine NK cells against RMA-S cell lines; assay type: cell-based, mouse
Protocol: Murine NK cells were isolated from the spleen of C57BL/6 Rag1^−/− mice. These cells were enriched by negative selection using a Mouse NK Cell Isolation Kit (130-096-892, Miltenyi Biotech). Cells were then incubated with PE-conjugated anti-NK1.1 and Pacific Blue-conjugated anti-CD3 (Biolegend), and NK cells were sorted using a BD FACS Aria. Purity after sorting was ˜99%. NK cells used for cytotoxicity assays were isolated from mice that had received an intraperitoneal injection of 200 μg Poly(I:C) (InvivoGen) 1 day prior to NK cell isolation.
Target cells were labeled for 1 hour with 100 μCi of ^51[Cr] per 2×10^6 cells in 0.2 ml of media. Subsequently, cells were washed and plated in V-bottom 96-wells plates (5,000 target cells per well). To determine the experimental release, NK cells were added in an equal volume, but at different ratios. […]
For experiments shown in FIGS. 1E, 10, and 13E antibodies were added at the time of the killing assay. […] At the end of the incubation period, plates were centrifuged (2000 rpm, 5 minutes), part of the supernatant was collected, mixed with scintillation fluid, and radioactivity was quantified using a MicroBeta2 reader (Perkin Elmer). Specific killing was calculated using the following formula: 100×(Experimental release−Spontaneous release)/(Maximum release−Spontaneous release).

B1: 7C6-mIgG2b: 7C6 with parental murine IgG2b Fc (antibody)
VH: QIQLVQSGPELKKPGETVKVSCKASGYMFTNYAMNWVKQAPEKGLKWMGWINTHTGDPTYADDFKGRIAFSLETSASTAYLQINNLKNEDTATYFCVRTYGNYAMDYWGQGTSVTVSSAKTTAPSVYPLAPVCGDTTGSSVTLGCLVKGYFPEPVTLTWNSGSLSSGVHTFPAVLQSDLYTLSSSVTVTSS
VL: DIQMTQTTSSLSASLGDRVTISCSASQDISNYLNWYQQKPDGTVKLLIYDTSILHLGVPSRFSGSGSGTDYSLTISNLEPEDIATYYCQQYSKFPRTFGGGTTLEIK
[1]
  activity against CT26-MICA lung metastases: has activity against CT26-MICA tumor cells
[2]
  therapeutic activity against lung metastases after NK cell or CD8 T cell depletion: NK cell (anti-asGM1 or anti-NK1.1) but not CD8 T cell (anti-CD8β) depletion abrogated the therapeutic activity
[3]
  ability to inhibit MICA shedding, 7C6 with distinct Fc regions: does not alter the ability of MICA antibody to inhibit MICA shedding
[4]; full-length MICA
  murine NK cell-mediated cytotoxicity against tumor cells expressing full-length MICA: enhances NK cell-mediated cytotoxicity
[4]; secreted MICA
  murine NK cell-mediated cytotoxicity against tumor cells that release MICA by exocytosis: not against tumor cells that release MICA by exocytosis
